The target of this test is biotinylated Sos1^PRS peptide. As to the kind of experiment: BLI. Background: In BLI a coated tip is dipped into the sample, and binding shifts an interference pattern.

One may read the Kd as a measure of binding affinity in units of concentration. On to “GST-tagged Grb2^SH3C (C-terminal SH3 domain of Grb2) (domain or fragment)”, for which the Kd came to 14.7 µM.

For the origin of these results see publication doi:10.1101/2025.02.16.638521.
